Data from patent publication US8206955B2, “Production of monatin and monatin precursors” (Cargill, Incorporated, priority 2003, dated 2012).

What was measured:
Type in all cases: biochemical
[1] = in vitro monatin production with aldolase and aminotransferase; details: 30 μg/mL KHG enzyme, 50 mM Tris pH 8.3, saturating tryptophan, one hour
[2] = aminotransferase activity using D-tryptophan as substrate; details: purified (P)
Experimental: Cell extracts were analyzed by SDS-PAGE, and assayed for tryptophan aminotransferase activity by following production of indole-pyruvic acid using the following protocol. […] The reactions were initiated by the addition of cell free extracts or purified enzyme and were incubated 30 minutes at 30° C. 20% TCA (200 μL) was added to stop the reaction, and the precipitated protein was removed by centrifugation. The absorbance at 327 nm was measured and compared to a standard curve of freshly prepared indole-3-pyruvate in the assay buffer. Control reactions without the substrate tryptophan or using cell-free extracts from clones transformed with pET30a alone were also performed.
(§1) Table 1 lists the specific activities measured in micrograms of indole-3-pyruvate (I3P) formed per milligram protein per minute. […] In these cases a ‘>’ precedes the specific activity number.

[3] = tryptophan aminotransferase activity, production of indole-pyruvic acid; details: for Specific Activity: 5 mM L-tryptophan, 30 minutes at 30° C.; for tryptophan aminotransferase activity (in words): recombinant clones expressed in E. coli
Experimental: Cell extracts were analyzed by SDS-PAGE, and assayed for tryptophan aminotransferase activity by following production of indole-pyruvic acid using the following protocol. One mL reactions were carried out in 50 mM sodium tetraborate (pH 8.5), 0.5 mM EDTA, 0.5 mM sodium arsenate, 50 μM pyridoxal phosphate, 5 mM α-ketoglutarate, and 5 mM L-tryptophan. The reactions were initiated by the addition of cell free extracts or purified enzyme and were incubated 30 minutes at 30° C. 20% TCA (200 μL) was added to stop the reaction, and the precipitated protein was removed by centrifugation. The absorbance at 327 nm was measured and compared to a standard curve of freshly prepared indole-3-pyruvate in the assay buffer. Control reactions without the substrate tryptophan or using cell-free extracts from clones transformed with pET30a alone were also performed.
Due to background from the native E. coli aminotransferases in cell extracts, the recombinant fusion proteins each containing an aminotransferase protein fused to the pET30 amino terminal HIS6-Tag/S-Tag (6×HIS tag disclosed as SEQ ID NO: 90) were purified using immobilized metal affinity chromatography with His-Bind cartridges following manufacturer's protocols (Novagen, Madison, Wis.). The HIS6-Tag sequence (SEQ ID NO: 90) of the fusion proteins binds to the divalent Ni^2+ cations immobilized on IDA-based His-Bind resin. The eluent fractions were desalted on PD-10 (Amersham Biosciences, Piscataway, N.J.) columns and eluted in 50 mM Tris, pH 7.0. Purified proteins were analyzed by SDS-PAGE and assayed for aminotransferase activity.
as §1

[4] = monatin aminotransferase assay (loss of monatin by LC/MS)
Experimental: Transamination activity. Monatin aminotransferase assays were conducted with the aspartate aminotransferase (AspC) from E. coli, the tyrosine aminotransferase (TyrB) from E. coli, the broad substrate aminotransferase (BSAT) from L. major, and the two commercially available porcine glutamate-oxaloacetate aminotransferases described in Example 1. Both oxaloacetate and alpha-ketoglutarate were tested as the amino acceptor. The assay mixture contained (in 0.5 mL) 50 mM Tris-HCl, pH 8.0, 0.05 mM PLP, 5 mM amino acceptor, 5 mM monatin, and 25 μg of aminotransferase. The assays were incubated at 30° C. for 30 minutes, and the reactions were stopped by addition of 0.5 mL isopropyl alcohol. The loss of monatin was monitored by LC/MS (Example 6). […] The relative activity with oxaloacetate was: BSAT>AspC>porcine type IIa>porcine type I=TyrB. The relative activity with alpha-ketoglutarate was: BSAT>AspC>porcine type I>porcine type IIa>TyrB.

B1: E. coli KHG: 4-hydroxy-2-oxoglutarate glyoxylate lyase (KHG aldolase) from E. coli (protein, UniProt P0A955 1-213, looked up)
KHG/KDPG aldolase: MKNWKTSAESILTTGPVVPVIVVKKLEHAVPMAKALVAGGVRVLEVTLRTECAVDAIRAIAKEVPEAIVGAGTVLNPQQLAEVTEAGAQFAISPGLTEPLLKAATEGTIPLIPGISTVSELMLGMDYGLKEFKFFPAEANGGVKALQAIAGPFSQVRFCPTGGISPANYRDYLALKSVLCIGGSWLVPADALEAGDYDRITKLAREAVEGAKL
monatin produced [1]: 3000 ng/mL

B2: B. subtilis D-aminotransf.: Bacillus subtilis D-alanine aminotransferase (dat) (protein, UniProt O07597 1-282, looked up)
D-alanine aminotransferase: MKVLVNGRLIGRSEASIDLEDRGYQFGDGIYEVIRVYKGVLFGLREHAERFFRSAAEIGISLPFSIEDLEWDLQKLVQENAVSEGAVYIQTTRGVAPRKHQYEAGLEPQTTAYTFTVKKPEQEQAYGVAAITDEDLRWLRCDIKSLNLLYNVMTKQRAYEAGAFEAILLRDGVVTEGTSSNVYAVINGTVRTHPANRLILNGITRMNILGLIEKNGIKLDETPVSEEELKQAEEIFISSTTAEIIPVVTLDGQSIGSGKPGPVTKQLQAAFQESIQQAASIS
Specific Activity [2]: 2.7 μg I3P/mg protein/min

B3: L. major bsat: Leishmania major broad substrate aminotransferase (bsat, SEQ ID NOS: 7 and 8) (protein)
chain: MSMQAAMTTAERWQKIQAQAPDVIFDLAKRAAAAKGPKANLVIGAYRDEQGRPYPLRVVRKAEQLLLDMNLDYEYLPISGYQPFIDEAVKIIYGNTVELENLVAVQTLSGTGAVSLGAKLLTRVFDAETTPIYLSDPTWPNHYGVVKAAGWKNICTYAYYDPKTVSLNFEGMKKDILAAPDGSVFILHQCAHNPTGVDPSQEQWNEIASLMLAKHHQVFFDSAYQGYASGSLDTDAYAARLFARRGIEVLLAQSFSKNMGLYSERAGTLSLLLKDKTKRADVKSVMDSLIREEYTCPPAHGARLAHLILSNNELRKEWEAELSAMAERIRTMRRTVYDELLRLQTPGSWEHVINQIGMFSFLGLSKAQCEYCQNHNIFITVSGRANMAGLTHETALMLAQTINDAVRNVNRE
modifications: Leishmania major
Specific Activity ([3]; cell extracts (CE)): >49.3 μg I3P/mg protein/min | Specific Activity ([3]; purified (P)): >4280 μg I3P/mg protein/min | tryptophan aminotransferase activity (in words) [3]: significant levels of tryptophan aminotransferase activity | monatin transamination activity (in words) ([4]; oxaloacetate as the amino acceptor, 5 mM monatin, 25 μg aminotransferase, 30° C. 30 minutes): highest amount of activity

B4: S. meliloti tatA: Sinorhizobium meliloti tyrosine aminotransferase (tatA, SEQ ID NOS: 1 and 2) (protein, listed as Sinorhizobium meliloti)
chain: MFDALARQADDPLLFLIGLFRKDERPGKVDLGVGVYRDETGRTPIFRAVKAAEKRLLETQDSKAYIGPEGDLVFLDRLWELVGGDTIERSHVAGVQTPGGSGALRLAADLIARMGGRGIWLGLPSWPNHAPIFKAAGLDIATYDFFDIPSQSVIFDNLVSALEGAASGDAVLLHASCHNPTGGVLSEAQWMEIAALVAERGLLPLVDLAYQGFGRGLDQDVAGLRHLLGVVPEALVAVSCSKSFGLYRERAGAIFARTSSTASADRVRSNLAGLARTSYSMPPDHGAAVVRTILDDPELRRDWTEELETMRLRMTGLRRSLAEGLRTRWQSLGAVADQEGMFSMLPLSEAEVMRLRTEHGIYMPASGRINIAGLKTAEAAEIAGKFTSL
Specific Activity ([3]; cell extracts (CE)): >28.6 μg I3P/mg protein/min | Specific Activity ([3]; purified (P)): >931 μg I3P/mg protein/min | tryptophan aminotransferase activity (in words) [3]: significant levels of tryptophan aminotransferase activity | conversion of monatin to MP (in words) ([4]; similar assays, conditions tested): did not appear to detectably convert monatin to MP
